Results from US20240018268A1.

Biological target: binding reagent of the similar bridge assay for the anti-CD19 (SJ25C1) CAR
Experiment: similar bridge assay for the anti-CD19 (SJ25C1) CAR

Sequence of binding reagent of the similar bridge assay for the anti-CD19 (SJ25C1) CAR (scFv, as listed by the source limits assumed): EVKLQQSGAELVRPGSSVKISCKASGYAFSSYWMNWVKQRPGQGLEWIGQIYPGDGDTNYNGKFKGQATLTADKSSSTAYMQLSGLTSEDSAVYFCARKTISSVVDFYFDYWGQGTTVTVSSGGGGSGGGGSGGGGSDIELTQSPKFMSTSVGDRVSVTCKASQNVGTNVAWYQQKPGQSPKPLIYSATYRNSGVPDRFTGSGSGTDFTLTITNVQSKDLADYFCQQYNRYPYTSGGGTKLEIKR

B1: anti-idiotype antibody clone A-1 (anti-ID A-1) (antibody, mouse IgG1, kappa, V domains shown)
VH: QVQLQQPGSELVRPGGSVKLSCKASDYTFTSYWMHWVRQRPGQGLEWIGNIYPGSGGTNYDEKFKRKATLTVDTSSSTAYMQLRSLTSEDSAVYYCTREVTTVAYYYSMDYWGQGTSVTVSS
VL: DIQMTQTTSSLSASLGDRVTISCRASQDISNYLNWYQQKPDGTVKLLIYYTSRLHSGVPSRFSGSGSGTDYSLTISNLEQEDIATYFCQQGKTVPFTFGSGTKLEIKR
fold signal over plasma background: > 5 fold | sensitivity of the bridge assay: < 100 ng/mL
